Source: patent publication US20240301385, “DNA MODIFYING ENZYMES AND ACTIVE FRAGMENTS AND VARIANTS THEREOF AND METHODS OF USE” (LIFEEDIT THERAPEUTICS, INC., published 2024)

T1: APG30125-L32-nAPG07433.1 (synthetic)
T1 chain: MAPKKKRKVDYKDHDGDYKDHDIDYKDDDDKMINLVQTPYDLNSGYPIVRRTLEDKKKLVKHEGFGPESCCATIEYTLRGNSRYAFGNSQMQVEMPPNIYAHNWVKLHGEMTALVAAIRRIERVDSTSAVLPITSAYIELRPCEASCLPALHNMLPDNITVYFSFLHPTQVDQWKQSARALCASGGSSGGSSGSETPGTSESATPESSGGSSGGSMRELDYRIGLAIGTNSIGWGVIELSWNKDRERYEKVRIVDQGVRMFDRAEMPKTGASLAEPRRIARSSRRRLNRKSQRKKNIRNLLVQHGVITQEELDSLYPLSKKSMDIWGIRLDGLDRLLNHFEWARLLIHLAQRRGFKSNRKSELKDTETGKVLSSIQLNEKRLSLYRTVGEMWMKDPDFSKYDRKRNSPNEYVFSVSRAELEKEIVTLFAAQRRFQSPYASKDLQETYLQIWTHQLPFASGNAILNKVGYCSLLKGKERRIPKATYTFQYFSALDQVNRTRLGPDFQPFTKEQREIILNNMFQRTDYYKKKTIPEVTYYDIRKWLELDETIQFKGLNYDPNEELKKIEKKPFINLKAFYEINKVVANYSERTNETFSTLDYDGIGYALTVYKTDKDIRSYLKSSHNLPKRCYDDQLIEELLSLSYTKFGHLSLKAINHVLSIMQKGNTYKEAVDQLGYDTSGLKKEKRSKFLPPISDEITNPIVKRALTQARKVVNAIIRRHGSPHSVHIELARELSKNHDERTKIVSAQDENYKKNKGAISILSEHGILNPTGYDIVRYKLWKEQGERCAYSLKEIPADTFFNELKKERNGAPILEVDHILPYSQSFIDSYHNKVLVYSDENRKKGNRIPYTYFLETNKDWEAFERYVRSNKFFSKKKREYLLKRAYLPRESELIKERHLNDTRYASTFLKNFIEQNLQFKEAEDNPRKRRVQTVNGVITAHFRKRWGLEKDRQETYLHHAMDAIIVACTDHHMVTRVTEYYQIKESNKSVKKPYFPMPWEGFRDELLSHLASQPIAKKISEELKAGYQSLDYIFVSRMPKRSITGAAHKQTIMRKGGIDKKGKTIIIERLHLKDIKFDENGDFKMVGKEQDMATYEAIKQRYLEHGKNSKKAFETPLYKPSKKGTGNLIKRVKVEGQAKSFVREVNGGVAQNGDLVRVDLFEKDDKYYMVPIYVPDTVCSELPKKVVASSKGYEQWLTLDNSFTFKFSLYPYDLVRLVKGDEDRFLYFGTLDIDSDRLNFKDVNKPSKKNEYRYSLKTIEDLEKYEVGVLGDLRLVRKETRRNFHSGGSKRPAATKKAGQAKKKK

T2: APG30129-L32-nAPG07433.1 (synthetic)
T2 chain: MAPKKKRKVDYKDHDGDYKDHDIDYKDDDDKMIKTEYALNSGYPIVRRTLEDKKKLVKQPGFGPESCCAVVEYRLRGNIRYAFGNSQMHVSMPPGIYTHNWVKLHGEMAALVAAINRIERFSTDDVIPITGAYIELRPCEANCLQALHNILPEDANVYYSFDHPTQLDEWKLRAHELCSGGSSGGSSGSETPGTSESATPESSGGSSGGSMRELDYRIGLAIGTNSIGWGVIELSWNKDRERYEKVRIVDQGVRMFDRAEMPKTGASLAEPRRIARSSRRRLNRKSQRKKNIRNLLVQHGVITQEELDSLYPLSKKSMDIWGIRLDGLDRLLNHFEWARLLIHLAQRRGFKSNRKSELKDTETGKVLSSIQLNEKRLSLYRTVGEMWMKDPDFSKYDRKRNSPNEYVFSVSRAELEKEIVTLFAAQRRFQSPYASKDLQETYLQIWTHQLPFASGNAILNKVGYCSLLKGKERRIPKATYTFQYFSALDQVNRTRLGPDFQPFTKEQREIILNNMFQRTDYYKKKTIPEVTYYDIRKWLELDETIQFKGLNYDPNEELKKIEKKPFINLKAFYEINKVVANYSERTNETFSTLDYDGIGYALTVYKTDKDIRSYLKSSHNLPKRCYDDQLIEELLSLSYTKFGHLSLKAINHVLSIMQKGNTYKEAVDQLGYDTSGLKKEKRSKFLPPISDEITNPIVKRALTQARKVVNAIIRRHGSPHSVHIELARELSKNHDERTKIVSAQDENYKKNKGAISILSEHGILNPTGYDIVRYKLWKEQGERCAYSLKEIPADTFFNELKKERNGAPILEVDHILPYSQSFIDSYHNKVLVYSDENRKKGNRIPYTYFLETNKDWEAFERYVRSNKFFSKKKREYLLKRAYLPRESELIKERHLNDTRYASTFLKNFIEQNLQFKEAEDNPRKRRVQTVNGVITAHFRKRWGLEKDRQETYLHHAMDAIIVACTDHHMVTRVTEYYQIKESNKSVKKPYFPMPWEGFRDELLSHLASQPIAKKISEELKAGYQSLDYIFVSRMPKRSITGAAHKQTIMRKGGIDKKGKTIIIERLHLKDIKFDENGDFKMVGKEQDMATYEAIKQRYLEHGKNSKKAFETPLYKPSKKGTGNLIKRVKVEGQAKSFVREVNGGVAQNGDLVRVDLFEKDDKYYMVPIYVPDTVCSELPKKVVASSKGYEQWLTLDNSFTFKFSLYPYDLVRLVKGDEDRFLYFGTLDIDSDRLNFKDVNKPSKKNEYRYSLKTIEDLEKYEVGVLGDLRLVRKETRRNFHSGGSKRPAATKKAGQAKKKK

B1: SGN000169 sgRNA ; SGN000169 target (ssRNA ; dsDNA)
RNA: CACAUCUCGAGCAAGACGUUGUCAUAGUUCCAUUAAAGCCAAAAGUGGCUUUGAUGUUUCUAUGAUAAGGGUUUCGACCCGUGGCGUCGGGGAUCGCCUGCCCAUUGAAAUGGGCUUCUCCCCAUUUAUU
DNA 1: CACATCTCGAGCAAGACGTT
DNA 2: AACGTCTTGCTCGAGATGTG
B2: SGN000929 sgRNA ; SGN000929 target (ssRNA ; dsDNA)
RNA: AUCUGGAGGGAACUUACAGCAUAUGGUCAUAGUUCCAUGAAAGCCAAAAGUGGCUUUGAUGUUUCUAUGAUAAGGGUUUCGGCCCGUGGCGUCGGGGAUCGCCUGCCCAUUCCGAUGGGCUUCUCCCCAUUUAUU
DNA 1: ATCTGGAGGGAACTTACAGCATATG
DNA 2: CATATGCTGTAAGTTCCCTCCAGAT
B3: SGN000194 sgRNA ; SGN000194 target (ssRNA ; dsDNA)
RNA: GCCGCACAGCAUUCAGGUCGGUCAUAGUUCCAUUAAAGCCAAAAGUGGCUUUGAUGUUUCUAUGAUAAGGGUUUCGACCCGUGGCGUCGGGGAUCGCCUGCCCAUUGAAAUGGGCUUCUCCCCAUUUAUU
DNA 1: GCCGCACAGCATTCAGGTCG
DNA 2: CGACCTGAATGCTGTGCGGC
B4: SGN000930 sgRNA ; SGN000930 target (ssRNA ; dsDNA)
RNA: GAACAACUCAAAUGGAAAUGAAUAUGUCAUAGUUCCAUGAAAGCCAAAAGUGGCUUUGAUGUUUCUAUGAUAAGGGUUUCGGCCCGUGGCGUCGGGGAUCGCCUGCCCAUUCCGAUGGGCUUCUCCCCAUUUAUU
DNA 1: GAACAACTCAAATGGAAATGAATAT
DNA 2: ATATTCATTTCCATTTGAGTTGTTC

Legend:
APG30125-L32-nAPG07433.1 = target: T1, APG30125-L32-nAPG07433.1; assay: cell_activity; HEK293FT; PAM SEQ 152; settings: tags: SV40 NLS, 3xFLAG N-term; nucleoplasmin NLS C-term
How it was run: (§1)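 Editing read out by next-generation sequencing (MiSeq 2×250) of PCR amplicons spanning the target site, analysed for INDELs or % cytosine conversion per position (position 1 nearest PAM).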

APG30129-L32-nAPG07433.1 = target: T2, APG30129-L32-nAPG07433.1; assay: cell_activity; HEK293FT; PAM SEQ 152; settings: tags: SV40 NLS, 3xFLAG N-term; nucleoplasmin NLS C-term
How it was run: as §1

Row | Binder | activity (APG30125-L32-nAPG07433.1) | activity (APG30129-L32-nAPG07433.1)
1 | B1 | 6.89 % mutated reads | –
2 | B2 | 7.39 % mutated reads | –
3 | B3 | – | 5.92 % mutated reads
4 | B4 | – | 3.47 % mutated reads
